According to the nanobody polyreactivity screen of Harvey et al. (2022):

Test: yeast display, Sf9 membrane polyspecificity reagent, FACS + sequencing; frameworks hold sequencing errors
Summary of the method: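 Nanobodies came from a synthetic yeast display library in Saccharomyces cerevisiae BJ5465, induced with galactose for 36–48 hours and stained for 1 hour at 4 °C with 10% biotinylated, detergent-solubilized Sf9 membrane reagent. Cells were enriched on streptavidin microbeads and then FACS-sorted, with low and high (top ~1%) gates set on anti-HA fluorescence for expression and streptavidin fluorescence for reagent binding. Each polyreactivity label reflects the gate a clone came from. Genes were amplified by colony PCR, sequenced by MiSeq 2 × 250 and filtered by CDR length.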

Sequence | polyreactivity (PSR sort gate)
QGQLVESCGGLVQAGGSLRLSCAASGRTFYYYAMGWYRQAPRKERELVAAMTSGGRTNSADSVKGRFTSSRDKATNTDSLQMNSLKPEDTAVYYCAKPPYSQYEFDYWGQGTQVTVSS | high polyreactivity
QGQLVESGGALVQAGGSLRLICAASGRTFAAYSMGWYRQAPGKERELVAAISIGGSTNYADSVKVRFTISRDNAKNSVYLQMNSLKPEDSAVYYCAAPGRRYLRARIRYEYWGQGTQLTVSS | high polyreactivity
QGQLVESGGALVQAGGSLRLSCAASGRILRYYAMGWNRQAPGKERELVAVITSSDGSTYYADSVKGRFTISRDNAKNTVYLQQNSLKPEDTAVDYCAAAPLWRVASWWDPYRRYDYWGQGTQVTVSS | low polyreactivity
QGQLVESGGCLVQAGGSLRLSCDASGFIFTSYAMGWYRQAPGQEWELVAVITASGGSTYYADSVKGRFTISRDNAKNTVYLQMNSLKPEDTAVYYCNRYYQSYYGWTGPYGYWGQGTQVTVSS | high polyreactivity
QGQLVESGGGIVQAGVSLRLSCAASGSIFTANAMGWYRQAPGKVRELVAAISRSGGRTYYADSVKGRFTISRDNAKNTVYLQMNSLNPEDTAVYYCNVGSFNTSGYDYWGQGTQVTVSS | high polyreactivity
QGQLVESGGGLGQAGGSLRLSCAASGSTSGIYAMGWYRQAPGKERELVAAIDTSGGSSYADSVKGRFTISRDNAKHTVYLQMNSLKPEDTAVYYCAKPFCSNSWSHGYWGQGTQVTVSS | low polyreactivity
QGQLVESGGGLVQAGGSLRFSCAASGRIFSVYDMGWYRQAPGTERELVAAIDTSDGSTNYADSVKGRFTISRDNAKNSVYLQMNSLKPEDTAVYYCNATDSYVPFDYWGQGTQVTVSS | low polyreactivity
QGQLVESGGGLVQAGGSLRLRCAASGFTFAVNTMGWYRQAPVKERELVAAITASGGSTHYADSVKGRFTISRDNAKNNVYLQMNSLKPEDTAVYYCAARPRLYQYYYWGQGTQVTVSS | high polyreactivity
QGQLVESGGGLVQAGGSLRLSCAAAGYTLGVNAMGWSRQAPGKERELVAAINYIDTRTYYAASVKGRFTISRDNAKNTVYLQMNSLNPEDTAVYYCAARPYVPWVKRYYYWGQGTQVTVSS | low polyreactivity
QGQLVESGGGLVQAGGSLRLSCAASGFTFSPYAMGSYRQAPGKERELVAVISGGGSTYYADSVKGRFTISRDNAKNTVYLQMNSLKPEDTAVYYCAKRFYRSYYWGQGTQVTVSS | high polyreactivity
QGQLVESGGGLVQAGGSLRLSCAASGGIFGNYAMGGYRQAPGKERELVAVIDSSDGSTHYADSVKGRFSISRDNAKTTVYLQINSLKAEDTAVYYCATLGFWNYWTFDYWGQGTQVTVSS | low polyreactivity
QGQLVESGGGLVQAGGSLRLSCAASGLTFKGYAMGWYRQAPGKERELVAAITWDTGSTYYADSVKGRFTISRDNAKNTVYLQMNSLKPEDTAVYYCAAVGSTTTGVRRRGYWGQGTQVTVSS | high polyreactivity
QGQLVESGGGLVQAGGSLRLSCAASGNTFNVYAMGWYRQAPGKARELVAAITLSGGSTYYADSVKGRFTISRDNSKNTVYLQMNSLKPEDTAFYYCNAEEDGTDYDYWGQGTQVTVSS | low polyreactivity
QGQLVESGGGLVQAGGSLRLSCAASGRIFTYYAMGWYRQAPGKERELVAAISWSGGSTYYADSVKGRFTISRDNAKNTVYLQMNSLKPEDTAVYYCAAVGYAGLPYGLRPNNSGYWGQGTQVTVSS | low polyreactivity
QGQLVESGGGLVQAGGSLRLSCAASGRTFGINAMGWYRQAPGKERELVAVISFGDGGTYYADSVKGRFTISRDNAKNTVYLQMNSLKPEDTAVYYCATDYQSTSVWGGHFVINPYDYWGQGTQVTVSS | low polyreactivity
QGQLVESGGGLVQAGGSLRLSCAASGRTFGYYAMRWYRQARGKERELVAVITRSGGTTYYADSVKGRFTISRDNAKNTVYLQMKSLKPEDTAVYYCHPAYYTGMYWGQGTQVTVSS | high polyreactivity
QGQLVESGGGLVQAGGSLRLSCAASGRTFRGNTMGWYRQAPGKERELVATISSRSSSTYYADSVKGRFTISRDNAKNTVYLQMHSLKPEDTAVYYCAVTNPLVRSGYSRYFGRYDYWGQGTQVTVSS | high polyreactivity
QGQLVESGGGLVQAGGSLRLSCAASGSIFDTYAMGWYRQAPGKERELVAAITRRAGSTYYADSVKGRFTISRDHAKNTLYFQMNSLKPEETSVYYCAAGYDRYPGGIDEYWGQGTQVTVSS | low polyreactivity
QGQLVESGGGLVQAGGSLRLSCAASGSIVFYYGMGWYRQAPGKERELVAAITWSGDSPYDADSVKGRFTISRDNAKNTVYLQLNSLKPEDTAVYYCNADQTSYYYPGNYDYWGQGTQVTVSS | high polyreactivity
QGQLVESGGGLVQAGGSLRLSCAASGSMFYRYAMGWYRQAPGKERELVAVITSAGGTHYADSVKGRFTISRDNAKNTVYLQMTSLKPEDTAVDYCARRGYYYDYWGEGTQVTVSS | high polyreactivity
QGQLVESGGGLVQAGGSLRLSCAASGSTFAYYAMGWYIPAPGKERELVAAITSRGGSTYYADSVKGRFTISRDNAKNTVYLQMNSLKPEDTAVYYCAAVTRNQGSYRYYYWGQGTQVTVSS | high polyreactivity

Sequence | polyreactivity (PSR sort gate)
QGQLVESGGGLVQAGGSLRLSCAASGSTFAYYAMGWYRQAPGKERELVAAINTTTGSTFYADSVKGRFTISRDNAKNTVYLQMNSLKPEDTAGYYCAAGVTGPSDDYDYWGQGTQVTVSS | low polyreactivity
QGQLVESGGGLVQAGGSLRLSCAASGSTFPPYRMGWYRQAPGKERELVAAITWRGGRTYYADSVKGRFTISRDNAKNTVYLQMNSLKREDTAVYYCAADYPYQYGRYAGSPGAGRYYWGQGTQVTVSS | high polyreactivity
QGQLVESGGGLVQAGGSLRLSCAPSGFIFKFYAMGWYRQAPGKESELVAAITSSGGSTNYADSVKGRFTISRDNAKNTVYLQMISLKPEDTAVSYCAAQFPGVYYYIYDYWGQGTQVTVSS | high polyreactivity
QGQLVESGGGLVQAGGSLRLSCAPTGRTFAHYARGWYRQAHWTERELVAGITRRAGSTYYADSVKGRFTISRDNAKHSVYLHMNSLKPEETEVYYCAAPRDWDAGDYWGQGTQVTVSS | high polyreactivity
QGQLVESGGGLVQAGGSLRLSSAASGSTFVGNAMGWYRQAPGKEREMVATISNSGGRTYYADSVKGRFTISRDNAKNTVYLQMTSLKPEDTAVYDCAADHPAFGPGYSFDYWGQGTQVTLSS | low polyreactivity
QGQLVESGGGLVQAGGSLRLTCAASGFIFDNYAMGWYRHAPGKERELVADISWGGGSTYYADSVKGRFTISRDNAKNTVYLQMNSLTPEDTAVYYCDAQYSYRMDYWGQGTQVTVSS | low polyreactivity
QGQLVESGGGLVQAGGSLRLTCAASGITFDDYAMGWYRQAPGKERELVAAISWSGDITYYADSVKGRFTSSRDNATNTVYLQMNSLKPEDTAVYYCAADLSPYGYDYWGQGTQVTVSS | low polyreactivity
QGQLVESGGGLVQAGGSLRLTCAASGRIFKWYAMGWYIQETGKERELVAAISSAGSTYYADSVKGRFTISRDNAKNTVYLQLNSLKPEDTAVYYCAARKYTFRRKSRYGYWGQGTQVTVSS | high polyreactivity
QGQLVESGGGLVQARGSLRLSCAAYGRTFYGNVMGWYRQAPGNERELDATISVSSGSTYYADSVKGRFTISRDTEKNTVYLLMNSLKPEDSAVYYCNADDTDYATGGGNYWGQGTQVTVSS | low polyreactivity
QGQLVESGGRLVQAGVSLRLSCAASGFIFPKYAMGWYRQAPGKERELVAVITWRSGSTYYADSVKGRFTISRDNAKNTVYLQMNSLKTEETADYYCNARRSSGRYSKMGYWGQGTQVTVSS | high polyreactivity
QGQLVESGGVLVQAGGSLRLSCAASGSIIQPYAMGWYRQAPGKERELVAAISRGGTTYYADSVKGRFTISRDNAKNTVYLQMNSLKPEDTAVYYCAVKGYRYGTRYDYWGQGTQVTVSS | high polyreactivity
QGQLVESGRGLVQAGGSLRLSCAASGRTFRRYGKGWYRQAPGNERELVAAITSGGGTYYEDSVKGRVTISRDNAKNTVYLQMNSLKPEDTAVYYCAAQRVYKSSPSYDFWGQGTQVTVSS | low polyreactivity
QGQLVESGRGLVQAGGSLRLSSAASGSTFFANAMGWYRQAPGKERELVAAIDKRGGRTYYADSVKGRFTISRDNAKNTVYLQMNSLKPEDTAVYYCNAVANYRLKYDYWGQGTQVTVSS | high polyreactivity
QGQLVETGGGLVQAGGILRLSCAASGSIFGDYDMGWYRQDPGKERDLVAAITSSGGMTYYADSVKGRFTISRDNAKNTVYFQMNSLKPVDTAVYYCAAYGYGSKYRYTGYYYWGQGTQVTVSS | low polyreactivity
QGQRVESGGGLVQAGGSLRLSCAASGSIFTYAMGGSRQAPGNERELGAAISRSGGRTYYADSGKGRFTISRDNAKNTVSLHMNSLKPEDTAVYYCAALLLKDYDYWGPGTQVTVSS | low polyreactivity
QHHLVESGGGLVQAGGSLRLSCAASGRPLQGYAMGWYRQAPGKHRELVAAITWSGGSTYYADSVKGRFTISRDKAKNTVYLQMNSLKPEDTAVYYCATDDDSARFDYWGQGTQVTVSS | low polyreactivity
QHQLVDSGVCLVQAGRSLRLSCDASGYTFYIYAMGWYTQAPRKERELVATISSSGGGTYYADSVKGRFTISRDNAKNTVYLQMNSLNPEDTAVYYCNADGWYWQAQGYDYWGQGTQVTVSS | low polyreactivity
QIQLVESCGGLVQAGGSLRLICDDSGITFTIYAMGGYRQAHGKERELVAAIDSGGGTNYADSVKGRFTISRDNAKNTVYLQMNSLKPEDTAFYYCAAYWYAEGYWVSRDYWGQGTQVTVSS | low polyreactivity
QIQLVESVGGLVQAGGSLRLSCAASGSIFQYYAMGWYRQAPGKERELVAAISSGGSTYYADSVKGRFTISRENAKNTVYLQMNSLKPEDTAVYYCAADLQSGYTIPTSIVEYHPFDYWGQGTQGTVSS | low polyreactivity
QLHLEESGGGLVQAGGSLRISCAASGSTFGIYAMGSYRQAPGKEREILAAISVGGGRTYYADTVKGRFTISRDNAKNTVLLQMNSLKPEDTAVYYCAVYGFWGLGTQVTVSS | high polyreactivity
